Measurements from paper PMC6776665.
pKd: −log10 of the molar value.

Key:
[1] = target: GST-tagged TRIM21-RING (residue 1-85) (UniProt P19474); test: SPR; BIAcore T200; GST-T21-R captured on an anti-GST antibody-coated CM5 chip (GST on the reference channel); Ube2N or Ube2N~Ub injected in 1:2 dilution series from 80 µM; 30 µl/min; 20 mM Tris-HCl pH 8.0, 150 mM NaCl, 1 mM DTT; 25 °C; KD from equilibrium responses, single-site model
TRIM21-RING^M10E = TRIM21-RING^M10E (UniProt P19474); test: NMR titration; Ube2N^C87K/K92A titrated into 100 µM 15N-labelled T21-R^M10E constructs; KD from fits of chemical shift perturbations (five peaks); 25 °C; 50 mM deuterated Tris pH 7.0, 150 mM NaCl, 1 mM deuterated DTT
TRIM21-RING^M10E/E12R = TRIM21-RING^M10E/E12R (UniProt P19474); test: as above

Row | Substance | pKd [1] | koff [1] [s⁻¹] | pKd (TRIM21-RING^M10E) | pKd (TRIM21-RING^M10E/E12R)
1 | Ube2N (as used in the SPR experiment) (enzyme) | 4.37 | > 1 |  | 
2 | Ube2N^C87K/K92A (enzyme) |  |  | 4.82 | 4.24
3 | isopeptide-linked Ube2N^C87K/K92A~ubiquitin conjugate (from UniProt P0CG48 1-76) (complex) | 5.30 | 0.15 |  | 
